Data as given in patent publication US20250043302A1, “MUTATED HYDROXYPHENYLPYRUVATE DIOXYGENASE POLYPEPTIDE, AND CODING GENE AND USE THEREOF” (BEIJING DABEINONG BIOTECHNOLOGY CO., LTD., priority 2021, published 2025).
Positions count from the first letter of the chain named. Numbers in names are those of the source.

B1: OsHPPD-02: nucleotide sequence encoding wild-type Oryza sativa HPPD; vector DBN11754 (nucleic acid)
DNA: ATGCCACCCACGCCAACACCAACGGCCACCACTGGTGCCGTCTCGGCCGCGGCAGCGGCCGGTGAGAATGCTGGTTTCAGGCTAGTCGGCCACCGCCGCTTCGTGAGGGCAAATCCAAGATCTGATCGGTTCCAAGCACTTGCTTTCCACCATGTTGAGCTGTGGTGCGCTGACGCCGCTTCAGCTGCCGGGAGGTTTGCTTTTGCTTTAGGGGCGCCGCTCGCCGCAAGGAGTGATCTTTCCACCGGAAATTCTGCTCATGCTTCTCTTCTACTTAGATCAGCAAGTGTTGCATTTCTGTTCACTGCACCTTATGGCGGAGACCATGGTGTCGGGGCCGATGCTGCAACAACAGCTAGCATACCATCATTTTCTCCCGGCGCCGCAAGAAGATTTGCAGCCGATCATGGCCTGGCAGTTCATGCTGTGGCATTGAGGGTCGCCGACGCGGCTGATGCGTTCCGCGCCAGCGTGGCTGCTGGAGCTAGGCCGGCGTTCCAGCCTGCTGACCTTGGGGGTGGATTTGGATTGGCGGAGGTTGAATTATATGGTGATGTTGTGCTCCGTTTTGTTTCCCATCCAGATGGTGCTGATGCTCCATTTCTACCTGGATTTGAAGGGGTGTCAAACCCCGGCGCGGTGGATTATGGACTGCGTCGATTTGATCACGTGGTAGGTAATGTTCCTGAGTTGGCTCCCGTGGCGGCCTACATTTCAGGCTTTACTGGCTTCCATGAATTTGCCGAGTTCACCGCGGAAGATGTGGGAACTGCTGAAAGTGGATTGAACTCTGTTGTCCTGGCGAACAATGCAGAGACTGTATTGCTCCCCTTGAATGAGCCTGTGCACGGCACCAAACGGCGATCTCAAATTCAGACATACCTCGACCACCACGGGGGCCCTGGTGTTCAGCATATTGCTCTAGCCAGCGACGACGTACTGGGAACACTGAGGGAGATGAGAGCCCGTTCCGCCATGGGTGGCTTTGAGTTTCTGGCCCCTCCGCCGCCAAACTACTACGACGGCGTCAGACGGCGGGCGGGTGACGTCTTGAGTGAGGAGCAGATCAATGAATGTCAAGAACTTGGGGTTCTTGTTGATAGAGATGATCAAGGAGTGCTCCTCCAAATATTCACAAAACCTGTTGGCGACCGCCCGACCTTCTTCCTTGAAATGATCCAAAGGATCGGCTGCATGGAGAAGGATGAATCGGGCCAGGAGTACCAGAAGGGTGGGTGTGGTGGCTTTGGGAAGGGCAACTTCAGCGAGCTGTTCAAGTCAATTGAAGAATATGAAAAATCATTGGAGGCAAAGCAAGCTCCGACGGTGCAGGGAAGCTGA
modifications: OsHPPD-02 Nucleotide Sequence
notes: vector DBN11754
B2: OsHPPDm-F372A-F383W-02: nucleotide sequence encoding Oryza sativa HPPD with F372A+F383W; vector DBN11757 (nucleic acid)
DNA: B1 DNA with T1132G, T1133C, T1166G, C1167G
modifications: OsHPPDm-F372A-F383W-02 Nucleotide Sequence
notes: vector DBN11757
B3: OsHPPDm-F372A-02: nucleotide sequence encoding Oryza sativa HPPD with F372A; vector DBN11755 (nucleic acid)
DNA: B1 DNA with T1132G, T1133C
modifications: OsHPPDm-F372A-02 Nucleotide Sequence
notes: vector DBN11755

The molecules below were run on Arabidopsis thaliana T1 plants (assay: Isoxaflutole tolerance of transgenic Arabidopsis thaliana T1 plants (spray, bleached leaf area grade, damage score)). Settings: isoxaflutole 35 g ai/ha (0.5x field concentration), spray, Arabidopsis thaliana T1 plants.
Type: in vivo
Parameters: Scores (pesticide damage): scale not given here
How it was run: (§1)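 Read-out: per-plant damage grade 0–3 from proportion of bleached leaf area at 7 DAT (1 <50%, 2 >50%, 3 100%). Plants were T1 transformants, glufosinate-selected, plus wild-type CK, sprayed 18 days post-sowing. Rates: topramezone 25–200, isoxaflutole 35–280, mesotrione 52.5–420 g ai/ha.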

With B1 the Resistance evaluation was “Non-resistant”.
For B2, the Resistance evaluation was “Highly”.
For B3, the Resistance evaluation was “Poorly”.

Point of comparison: B1, “Scores (pesticide damage)” value 100. Against it:
- B2 — lower, 10
- B3 — lower, 52

Same assay, conditions: isoxaflutole 35 g ai/ha (0.5x field concentration), spray, Arabidopsis thaliana T1 plants, 16 plants

Point of comparison: B3, “Classification and statistics of the grade of pesticide damage: Grade 0 (number of plants)” value 0. Against it:
- B1 — the same, 0
- B2 — higher, 11

Point of comparison: B1, “Classification and statistics of the grade of pesticide damage: Grade 1 (number of plants)” value 0. Against it:
- B2 — higher, 5
- B3 — higher, 8

Point of comparison: B1, “Classification and statistics of the grade of pesticide damage: Grade 2 (number of plants)” value 0. Against it:
- B2 — the same, 0
- B3 — higher, 7

Point of comparison: B2, “Classification and statistics of the grade of pesticide damage: Grade 3 (number of plants)” value 0. Against it:
- B1 — higher, 16
- B3 — higher, 1

Same assay, conditions: isoxaflutole 70 g ai/ha (1x field concentration), spray, Arabidopsis thaliana T1 plants

B1 was tested, and the Resistance evaluation was “Non-resistant”.
In the case of B2, the Resistance evaluation is reported as “Highly”.
With B3 the Resistance evaluation was “Non-resistant”.

Point of comparison: B1, “Scores (pesticide damage)” value 100. Against it:
- B2 — lower, 15
- B3 — the same, 100

Same assay, conditions: isoxaflutole 70 g ai/ha (1x field concentration), spray, Arabidopsis thaliana T1 plants, 16 plants

Point of comparison: B1, “Classification and statistics of the grade of pesticide damage: Grade 0 (number of plants)” value 0. Against it:
- B2 — higher, 9
- B3 — the same, 0

Point of comparison: B1, “Classification and statistics of the grade of pesticide damage: Grade 1 (number of plants)” value 0. Against it:
- B2 — higher, 7
- B3 — the same, 0

Point of comparison: B1, “Classification and statistics of the grade of pesticide damage: Grade 2 (number of plants)” value 0. Against it:
- B2 — the same, 0
- B3 — the same, 0

Point of comparison: B3, “Classification and statistics of the grade of pesticide damage: Grade 3 (number of plants)” value 16. Against it:
- B1 — the same, 16
- B2 — lower, 0

Each molecule was assayed on Arabidopsis thaliana T1 plants (assay: Topramezone tolerance of transgenic Arabidopsis thaliana T1 plants (spray, bleached leaf area grade, damage score)). Settings: number of plants; topramezone 25 g ai/ha (1×), 7 DAT; Table 4.
Type: in vivo
How it was run: as §1

Point of comparison: B1, “Classification and statistics of the grade of pesticide damage: Grade 0” value 0. Against it:
- B2 — higher, 10
- B3 — higher, 8

Point of comparison: B2, “Classification and statistics of the grade of pesticide damage: Grade 1” value 6. Against it:
- B1 — lower, 0
- B3 — higher, 8

Point of comparison: B1, “Classification and statistics of the grade of pesticide damage: Grade 2” value 0. Against it:
- B2 — the same, 0
- B3 — the same, 0

Point of comparison: B2, “Classification and statistics of the grade of pesticide damage: Grade 3” value 0. Against it:
- B1 — higher, 16
- B3 — the same, 0

Same assay, conditions: number of plants; topramezone 100 g ai/ha (4×), 7 DAT; Table 4

Point of comparison: B1, “Classification and statistics of the grade of pesticide damage: Grade 0” value 0. Against it:
- B2 — higher, 2
- B3 — the same, 0

Point of comparison: B3, “Classification and statistics of the grade of pesticide damage: Grade 1” value 0. Against it:
- B1 — the same, 0
- B2 — higher, 13

Point of comparison: B1, “Classification and statistics of the grade of pesticide damage: Grade 2” value 0. Against it:
- B2 — higher, 1
- B3 — the same, 0

Point of comparison: B1, “Classification and statistics of the grade of pesticide damage: Grade 3” value 16. Against it:
- B2 — lower, 0
- B3 — the same, 16

Same assay, conditions: pesticide damage score 0-100; topramezone 25 g ai/ha (1×), 7 DAT; Table 4

Point of comparison: B3, Scores 17. Against it:
- B1 — higher, 100
- B2 — lower, 13

Same assay, conditions: pesticide damage score 0-100; topramezone 100 g ai/ha (4×), 7 DAT; Table 4

Point of comparison: B3, Scores 100. Against it:
- B1 — the same, 100
- B2 — lower, 31

Same assay, conditions: topramezone 25 g ai/ha (1×), 7 DAT; Table 4

B1 was tested, and the Resistance evaluation was “non-resistant (non-resistant plants (scores 68-100))”.
In the case of B2, the Resistance evaluation is reported as “highly”.
In the case of B3, the Resistance evaluation is reported as “moderately”.

Same assay, conditions: topramezone 100 g ai/ha (4×), 7 DAT; Table 4

B1 was tested, and the Resistance evaluation was “non-resistant (non-resistant plants (scores 68-100))”.
For B2, the Resistance evaluation was “moderately”.
In the case of B3, the Resistance evaluation is reported as “non-resistant (non-resistant plants (scores 68-100))”.

These molecules were tested on Arabidopsis thaliana T1 plants (assay: Mesotrione tolerance of transgenic Arabidopsis thaliana T1 plants (spray, bleached leaf area grade, damage score)). Settings: mesotrione 52.5 g ai/ha; Arabidopsis thaliana T1 plants.
Type: in vivo
Parameters: Scores: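 damage score 0-100 computed as Σ(N×S)/(T×M)×100 over grades 0-3 with higher meaning more damage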
How it was run: as §1

For B1, the Resistance evaluation was “Non-resistant”.
In the case of B2, the Resistance evaluation is reported as “Highly resistant”.
With B3 the Resistance evaluation was “Poorly resistant”.

Point of comparison: B3, Scores 63. Against it:
- B1 — higher, 100
- B2 — lower, 15

Same assay, conditions: mesotrione 52.5 g ai/ha; Arabidopsis thaliana T1 plants; 16 plants

Point of comparison: B3, “Grade 0 (classification and statistics of the grade of pesticide damage; number of plants)” value 0. Against it:
- B1 — the same, 0
- B2 — higher, 9

Point of comparison: B2, “Grade 1 (classification and statistics of the grade of pesticide damage; number of plants)” value 7. Against it:
- B1 — lower, 0
- B3 — lower, 5

Point of comparison: B3, “Grade 2 (classification and statistics of the grade of pesticide damage; number of plants)” value 8. Against it:
- B1 — lower, 0
- B2 — lower, 0

Point of comparison: B2, “Grade 3 (classification and statistics of the grade of pesticide damage; number of plants)” value 0. Against it:
- B1 — higher, 16
- B3 — higher, 3

Same assay, conditions: mesotrione 105 g ai/ha; Arabidopsis thaliana T1 plants

For B1, the Resistance evaluation was “Non-resistant”.
B2 was tested, and the Resistance evaluation was “Poorly resistant”.
For B3, the Resistance evaluation was “Non-resistant”.

Point of comparison: B2, Scores 38. Against it:
- B1 — higher, 100
- B3 — higher, 100

Same assay, conditions: mesotrione 105 g ai/ha; Arabidopsis thaliana T1 plants; 16 plants

Point of comparison: B2, “Grade 0 (classification and statistics of the grade of pesticide damage; number of plants)” value 0. Against it:
- B1 — the same, 0
- B3 — the same, 0

Point of comparison: B3, “Grade 1 (classification and statistics of the grade of pesticide damage; number of plants)” value 0. Against it:
- B1 — the same, 0
- B2 — higher, 14

Point of comparison: B1, “Grade 2 (classification and statistics of the grade of pesticide damage; number of plants)” value 0. Against it:
- B2 — higher, 2
- B3 — the same, 0

Point of comparison: B3, “Grade 3 (classification and statistics of the grade of pesticide damage; number of plants)” value 16. Against it:
- B1 — the same, 16
- B2 — lower, 0
